According to US20230242902A1, “A HIGHLY ERROR-PRONE […] R[…] FOR TARGETED CONTINUOUS EVOLUTION IN VIVO” (The Regents of the University of California, priority 2017, published 2023):

The molecules below were run on p1 (assay: p1 copy number by p1-encoded mKate2 fluorescence). Conditions: OR-Y24, measured in triplicate.
Type: cell-based, S. cerevisiae
Summary of the method: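 p1 copy number came from mKate2 fluorescence of saturated OR-Y24 cultures (triplicates, regrown from 1:10,000), read by flow cytometry and converted through a linear curve calibrated by qPCR (LEU2 against genomic LEU3). For small-scale tests, OD600-normalized plate-reader fluorescence (588/633 nm) was scaled to a w.t. TP-DNAP1 control.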

Row | Molecule | Mean fold-increase over w.t. (p1 copy number) [fold]
1 | S705R: TP-DNAP1 variant (protein) MDYKDKALNDLRNVYADFDSLPLDFRQILIKDRATLLQKEDVEKKILERQEDAKKYAEYLKQSEIPERISLPNIKRHKGVSISFEETSEDMVLEPRPFIFDGLNIRCFRRETIFSLKNKILNMVKESSSFKNVSRQSVSFMYFKIFNKGKVIASTKSVNIYEDKIDERLEDLCNNFDDVLKKIIDVTYGYESLFVSETYSYVIFYAKSIYFPQPRCVNNWGNNIPNILTFDSFKLFTANKNNVSCIKQCSRFLWQKDFNTLEEMIEYKNGNICIVTPQLHINDVRDIKSFNDIRLYSESPIKTFSVIDNTITYLFYFKEHLGVIFNITKSRHDRRVTKFSPLSKFSDVKNITVCFDIESYFDPEKESNQVNIPFICCASIIYNKVIGNIVDFEGRDCVAQMIEYVVDICGELNISSVELIAHNGGGYDFHYILSSMYNPAAIKNILIRNNSFISFNFAHDGVKFSVKDSYSFLLCSLANASKAFLNEETFKKTDFPHHDLKTADDLYKVYKEWSSVNTEINHVVEKEKLLITSEHIVNFTKNDKSKTLIEWSKDYCRNDVLVLSKVWLEFKNAVEDIFNCELVDQTMTLAGLSYKLFQANMPFDVELRHPNKEDYFNMREALIGGRCISVNGIYKDVLCLDVKSLYPASMAFYDQPYGSFKRVSSRPKDELGIYYVRVTPNRNNKSNFFPIRSHNKITYNNFEERTYIAWYTNVDIDIGLSEGHNIEYIPFDSYGNIGYSWSKKGKIFEKYIKDVLYKLKIKYEKQNNKVKRNVIKIIMNSLWGKFAQKWVNFEYFIKSEDDIDFESEEAYKIWDTDFMLIKKIKESTYSSKPIQNGVFTLSWARYHMKSIWDAGAKEGAECIYSDTDSIFVHKEHFKKNAKFMLNGLKVPIIGSEVGQLELECEFDKLLCAGKKQYMGFYTYFQDGKPCIKEKKRFKGIPSNYIIPELYAHLLSGADKEAKIQFLKFRREWGSVKGYIENKTVKAT | 1.84
2 | E298H: TP-DNAP1 variant (protein) MDYKDKALNDLRNVYADFDSLPLDFRQILIKDRATLLQKEDVEKKILERQEDAKKYAEYLKQSEIPERISLPNIKRHKGVSISFEETSEDMVLEPRPFIFDGLNIRCFRRETIFSLKNKILNMVKESSSFKNVSRQSVSFMYFKIFNKGKVIASTKSVNIYEDKIDERLEDLCNNFDDVLKKIIDVTYGYESLFVSETYSYVIFYAKSIYFPQPRCVNNWGNNIPNILTFDSFKLFTANKNNVSCIKQCSRFLWQKDFNTLEEMIEYKNGNICIVTPQLHINDVRDIKSFNDIRLYSHSPIKTFSVIDNTITYLFYFKEHLGVIFNITKSRHDRRVTKFSPLSKFSDVKNITVCFDIESYFDPEKESNQVNIPFICCASIIYNKVIGNIVDFEGRDCVAQMIEYVVDICGELNISSVELIAHNGGGYDFHYILSSMYNPAAIKNILIRNNSFISFNFAHDGVKFSVKDSYSFLLCSLANASKAFLNEETFKKTDFPHHDLKTADDLYKVYKEWSSVNTEINHVVEKEKLLITSEHIVNFTKNDKSKTLIEWSKDYCRNDVLVLSKVWLEFKNAVEDIFNCELVDQTMTLAGLSYKLFQANMPFDVELRHPNKEDYFNMREALIGGRCISVNGIYKDVLCLDVKSLYPASMAFYDQPYGSFKRVSSRPKDELGIYYVRVTPNRNNKSNFFPIRSHNKITYNNFEESTYIAWYTNVDIDIGLSEGHNIEYIPFDSYGNIGYSWSKKGKIFEKYIKDVLYKLKIKYEKQNNKVKRNVIKIIMNSLWGKFAQKWVNFEYFIKSEDDIDFESEEAYKIWDTDFMLIKKIKESTYSSKPIQNGVFTLSWARYHMKSIWDAGAKEGAECIYSDTDSIFVHKEHFKKNAKFMLNGLKVPIIGSEVGQLELECEFDKLLCAGKKQYMGFYTYFQDGKPCIKEKKRFKGIPSNYIIPELYAHLLSGADKEAKIQFLKFRREWGSVKGYIENKTVKAT | 2.57
3 | T706Q: TP-DNAP1 variant (protein) MDYKDKALNDLRNVYADFDSLPLDFRQILIKDRATLLQKEDVEKKILERQEDAKKYAEYLKQSEIPERISLPNIKRHKGVSISFEETSEDMVLEPRPFIFDGLNIRCFRRETIFSLKNKILNMVKESSSFKNVSRQSVSFMYFKIFNKGKVIASTKSVNIYEDKIDERLEDLCNNFDDVLKKIIDVTYGYESLFVSETYSYVIFYAKSIYFPQPRCVNNWGNNIPNILTFDSFKLFTANKNNVSCIKQCSRFLWQKDFNTLEEMIEYKNGNICIVTPQLHINDVRDIKSFNDIRLYSESPIKTFSVIDNTITYLFYFKEHLGVIFNITKSRHDRRVTKFSPLSKFSDVKNITVCFDIESYFDPEKESNQVNIPFICCASIIYNKVIGNIVDFEGRDCVAQMIEYVVDICGELNISSVELIAHNGGGYDFHYILSSMYNPAAIKNILIRNNSFISFNFAHDGVKFSVKDSYSFLLCSLANASKAFLNEETFKKTDFPHHDLKTADDLYKVYKEWSSVNTEINHVVEKEKLLITSEHIVNFTKNDKSKTLIEWSKDYCRNDVLVLSKVWLEFKNAVEDIFNCELVDQTMTLAGLSYKLFQANMPFDVELRHPNKEDYFNMREALIGGRCISVNGIYKDVLCLDVKSLYPASMAFYDQPYGSFKRVSSRPKDELGIYYVRVTPNRNNKSNFFPIRSHNKITYNNFEESQYIAWYTNVDIDIGLSEGHNIEYIPFDSYGNIGYSWSKKGKIFEKYIKDVLYKLKIKYEKQNNKVKRNVIKIIMNSLWGKFAQKWVNFEYFIKSEDDIDFESEEAYKIWDTDFMLIKKIKESTYSSKPIQNGVFTLSWARYHMKSIWDAGAKEGAECIYSDTDSIFVHKEHFKKNAKFMLNGLKVPIIGSEVGQLELECEFDKLLCAGKKQYMGFYTYFQDGKPCIKEKKRFKGIPSNYIIPELYAHLLSGADKEAKIQFLKFRREWGSVKGYIENKTVKAT | 2.92
4 | S705F: TP-DNAP1 variant (protein) MDYKDKALNDLRNVYADFDSLPLDFRQILIKDRATLLQKEDVEKKILERQEDAKKYAEYLKQSEIPERISLPNIKRHKGVSISFEETSEDMVLEPRPFIFDGLNIRCFRRETIFSLKNKILNMVKESSSFKNVSRQSVSFMYFKIFNKGKVIASTKSVNIYEDKIDERLEDLCNNFDDVLKKIIDVTYGYESLFVSETYSYVIFYAKSIYFPQPRCVNNWGNNIPNILTFDSFKLFTANKNNVSCIKQCSRFLWQKDFNTLEEMIEYKNGNICIVTPQLHINDVRDIKSFNDIRLYSESPIKTFSVIDNTITYLFYFKEHLGVIFNITKSRHDRRVTKFSPLSKFSDVKNITVCFDIESYFDPEKESNQVNIPFICCASIIYNKVIGNIVDFEGRDCVAQMIEYVVDICGELNISSVELIAHNGGGYDFHYILSSMYNPAAIKNILIRNNSFISFNFAHDGVKFSVKDSYSFLLCSLANASKAFLNEETFKKTDFPHHDLKTADDLYKVYKEWSSVNTEINHVVEKEKLLITSEHIVNFTKNDKSKTLIEWSKDYCRNDVLVLSKVWLEFKNAVEDIFNCELVDQTMTLAGLSYKLFQANMPFDVELRHPNKEDYFNMREALIGGRCISVNGIYKDVLCLDVKSLYPASMAFYDQPYGSFKRVSSRPKDELGIYYVRVTPNRNNKSNFFPIRSHNKITYNNFEEFTYIAWYTNVDIDIGLSEGHNIEYIPFDSYGNIGYSWSKKGKIFEKYIKDVLYKLKIKYEKQNNKVKRNVIKIIMNSLWGKFAQKWVNFEYFIKSEDDIDFESEEAYKIWDTDFMLIKKIKESTYSSKPIQNGVFTLSWARYHMKSIWDAGAKEGAECIYSDTDSIFVHKEHFKKNAKFMLNGLKVPIIGSEVGQLELECEFDKLLCAGKKQYMGFYTYFQDGKPCIKEKKRFKGIPSNYIIPELYAHLLSGADKEAKIQFLKFRREWGSVKGYIENKTVKAT | 1.76
5 | T706R: TP-DNAP1 variant (protein) MDYKDKALNDLRNVYADFDSLPLDFRQILIKDRATLLQKEDVEKKILERQEDAKKYAEYLKQSEIPERISLPNIKRHKGVSISFEETSEDMVLEPRPFIFDGLNIRCFRRETIFSLKNKILNMVKESSSFKNVSRQSVSFMYFKIFNKGKVIASTKSVNIYEDKIDERLEDLCNNFDDVLKKIIDVTYGYESLFVSETYSYVIFYAKSIYFPQPRCVNNWGNNIPNILTFDSFKLFTANKNNVSCIKQCSRFLWQKDFNTLEEMIEYKNGNICIVTPQLHINDVRDIKSFNDIRLYSESPIKTFSVIDNTITYLFYFKEHLGVIFNITKSRHDRRVTKFSPLSKFSDVKNITVCFDIESYFDPEKESNQVNIPFICCASIIYNKVIGNIVDFEGRDCVAQMIEYVVDICGELNISSVELIAHNGGGYDFHYILSSMYNPAAIKNILIRNNSFISFNFAHDGVKFSVKDSYSFLLCSLANASKAFLNEETFKKTDFPHHDLKTADDLYKVYKEWSSVNTEINHVVEKEKLLITSEHIVNFTKNDKSKTLIEWSKDYCRNDVLVLSKVWLEFKNAVEDIFNCELVDQTMTLAGLSYKLFQANMPFDVELRHPNKEDYFNMREALIGGRCISVNGIYKDVLCLDVKSLYPASMAFYDQPYGSFKRVSSRPKDELGIYYVRVTPNRNNKSNFFPIRSHNKITYNNFEESRYIAWYTNVDIDIGLSEGHNIEYIPFDSYGNIGYSWSKKGKIFEKYIKDVLYKLKIKYEKQNNKVKRNVIKIIMNSLWGKFAQKWVNFEYFIKSEDDIDFESEEAYKIWDTDFMLIKKIKESTYSSKPIQNGVFTLSWARYHMKSIWDAGAKEGAECIYSDTDSIFVHKEHFKKNAKFMLNGLKVPIIGSEVGQLELECEFDKLLCAGKKQYMGFYTYFQDGKPCIKEKKRFKGIPSNYIIPELYAHLLSGADKEAKIQFLKFRREWGSVKGYIENKTVKAT | 2
6 | S705L: TP-DNAP1 variant (protein) MDYKDKALNDLRNVYADFDSLPLDFRQILIKDRATLLQKEDVEKKILERQEDAKKYAEYLKQSEIPERISLPNIKRHKGVSISFEETSEDMVLEPRPFIFDGLNIRCFRRETIFSLKNKILNMVKESSSFKNVSRQSVSFMYFKIFNKGKVIASTKSVNIYEDKIDERLEDLCNNFDDVLKKIIDVTYGYESLFVSETYSYVIFYAKSIYFPQPRCVNNWGNNIPNILTFDSFKLFTANKNNVSCIKQCSRFLWQKDFNTLEEMIEYKNGNICIVTPQLHINDVRDIKSFNDIRLYSESPIKTFSVIDNTITYLFYFKEHLGVIFNITKSRHDRRVTKFSPLSKFSDVKNITVCFDIESYFDPEKESNQVNIPFICCASIIYNKVIGNIVDFEGRDCVAQMIEYVVDICGELNISSVELIAHNGGGYDFHYILSSMYNPAAIKNILIRNNSFISFNFAHDGVKFSVKDSYSFLLCSLANASKAFLNEETFKKTDFPHHDLKTADDLYKVYKEWSSVNTEINHVVEKEKLLITSEHIVNFTKNDKSKTLIEWSKDYCRNDVLVLSKVWLEFKNAVEDIFNCELVDQTMTLAGLSYKLFQANMPFDVELRHPNKEDYFNMREALIGGRCISVNGIYKDVLCLDVKSLYPASMAFYDQPYGSFKRVSSRPKDELGIYYVRVTPNRNNKSNFFPIRSHNKITYNNFEELTYIAWYTNVDIDIGLSEGHNIEYIPFDSYGNIGYSWSKKGKIFEKYIKDVLYKLKIKYEKQNNKVKRNVIKIIMNSLWGKFAQKWVNFEYFIKSEDDIDFESEEAYKIWDTDFMLIKKIKESTYSSKPIQNGVFTLSWARYHMKSIWDAGAKEGAECIYSDTDSIFVHKEHFKKNAKFMLNGLKVPIIGSEVGQLELECEFDKLLCAGKKQYMGFYTYFQDGKPCIKEKKRFKGIPSNYIIPELYAHLLSGADKEAKIQFLKFRREWGSVKGYIENKTVKAT | 1.98
